The text below walks through data of the nanobody polyreactivity screen of Harvey et al. (2022).

The nature of this data set: yeast display, Sf9 membrane polyspecificity reagent, FACS + sequencing; frameworks hold sequencing errors. The method in brief: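 Galactose-induced (36–48 hours) yeast carrying a synthetic nanobody display library were exposed to 10% biotinylated, detergent-solubilized Sf9 membrane reagent at 4 °C for 1 hour. FACS followed streptavidin microbead enrichment, using low and high (top ~1%) gates for expression (anti-HA) and reagent binding (streptavidin). Colony PCR, MiSeq 2 × 250 sequencing and CDR-length filtering followed. Labels for polyreactivity reflect the gate of origin.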
In the case of “QVQLVESGGGLVQAGGSLRLSCAASGRTFGPYAMGWYRQAPGKEREFVAAISYSGGSTYYADSVKGRFTISRDNAKNTVFLQMNSLKPEDTAVYYCAVDIDSNSGTRDYWGQGTQVTVSS”, the “polyreactivity (PSR sort gate)” value was “low polyreactivity”.

For the sequence “QVQLVESGGGLVQAGGSLRLSCAASGRTFGPYAMGWYRQAPGKERELVAAISRSGSSTYYADSVKGRFTISRDTGKNNVYLQMNSLKPEDTAVYDCAVARSSPEYYYWGQGTQVTVSS”, the “polyreactivity (PSR sort gate)” value is given as “high polyreactivity”.

As for “QVQLVESGGGLVQAGGSLRLSCAASGRTFGPYVMGWYRQAPGKERELVAAISFSGGSTYYADSVKGRFTISRDNAKNTVYLQMNSLKPEDTAVYYCAARAVGGVRGYRYDYWGQGTQVTVSS”, the “polyreactivity (PSR sort gate)” value is listed as “high polyreactivity”.

Regarding “QVQLVESGGGLVQAGGSLRLSCAASGRTFGQNAMGWYRQAPGKERELVAAISWRGARTFYADSVKGRFTISRDNAKNTVYLQMNSLKPEDTAVYYCAARYSAYRRNVAYDYWGQGTQVTVSS”, the “polyreactivity (PSR sort gate)” value is “high polyreactivity”.

As for “QVQLVESGGGLVQAGGSLRLSCAASGRTFGQNTMGWYRQAPGIERELVAAINWSGGSTYYADSVKGRFTISRDNAKNTVYLQMNSLKPEDTAVYYCAVRGYWGQGTQVTVSS”, the “polyreactivity (PSR sort gate)” value was “low polyreactivity”.

Take “QVQLVESGGGLVQAGGSLRLSCAASGRTFGRNAMGWYRQAPGKEREFVAAISRRGDTTYYADSVKGRFTISRDNAKNSVYLQMNSLKPEDTAVYYCNAAVIKDRFSWYYYWGQGTQVTVSS”: the “polyreactivity (PSR sort gate)” value was “low polyreactivity”.

On to “QVQLVESGGGLVQAGGSLRLSCAASGRTFGRNAMGWYRQAPGKERELVAAISSDGGRTYYADSVKGRFTISRDNAKNTVYLQMNSLKPEDTAVYYCAKQRSYSDGGYWGQGTQVTVSS”, for which the “polyreactivity (PSR sort gate)” value is on record as “low polyreactivity”.

Turning to “QVQLVESGGGLVQAGGSLRLSCAASGRTFGRNAMGWYRQAPGKERELVAAISTSGSRTYYADSVKGRFTISRDNAKNTVYLQMNSLKPEDTAVYYCNAYGVSRGSYGTRGYWGQGTQVTVSS”, the “polyreactivity (PSR sort gate)” value was “high polyreactivity”.

With “QVQLVESGGGLVQAGGSLRLSCAASGRTFGRNAMGWYRQAPGKVRELVAAINSDGSTYYADSVKGRFTISRDNAKNTVYLQMNSLKPEDTAVYYCAADTWVWTDYFRRFEYWGQGTQVTVSS”, the “polyreactivity (PSR sort gate)” value is on record as “high polyreactivity”.

For the sequence “QVQLVESGGGLVQAGGSLRLSCAASGRTFGRYAMGWYRQAPGKERELVARISFSGGSTHYADSVKGRFTISRDNAKNTVYLQMNSLKPEDTAVYYCNTDWYRNWGKPYYYWGQGTQVTVSS”, the “polyreactivity (PSR sort gate)” value is “high polyreactivity”.

In the case of “QVQLVESGGGLVQAGGSLRLSCAASGRTFGRYTMGWYRQAPGKERELVAAITGRGGSTFYADSVKGRFTISRDNAKNTVYLQMNSLKPEDTAVYYCAARRTSIKDQFYYWGQGTQVTVSS”, the “polyreactivity (PSR sort gate)” value is “high polyreactivity”.

Consider “QVQLVESGGGLVQAGGSLRLSCAASGRTFGRYVMGWYRQAPGKERELVAAISKGGTSPYYADSVKGRFTISRDNAKNTVYLQMNSLKPEDTAVYYCAAGSFARYTYVPRYDYWGQGTQVTVSS”, for which the “polyreactivity (PSR sort gate)” value is on record as “high polyreactivity”.

Turning to “QVQLVESGGGLVQAGGSLRLSCAASGRTFGRYVMGWYRQAPGKERELVSAISKGGTSTYYADSVKGRFTISRDNAKNTVYLQMISLKPVVTAVYYCAAGSFARYTYVPRYDYWGQGTQVTVSS”, the “polyreactivity (PSR sort gate)” value is recorded as “high polyreactivity”.

With “QVQLVESGGGLVQAGGSLRLSCAASGRTFGSYAMGCYRPAPVKEREVVAGITWRDGSTYYADSVKGRFTISRDNAKNTDYLQMNSLKPEDTAVYYCAKEAVRYYLFGMEYWGQGTQVTVSS”, the “polyreactivity (PSR sort gate)” value is recorded as “low polyreactivity”.

In the case of “QVQLVESGGGLVQAGGSLRLSCAASGRTFGSYAMGWYRQAPGKEREFVAAIYYGGGRTYYADSVKGRFSISRDNAKNTVYLQMNSLKAVDTAVYYCAADGVYRYNYPYLYTYDYWGQGTQVTVSS”, the “polyreactivity (PSR sort gate)” value was “low polyreactivity”.

With “QVQLVESGGGLVQAGGSLRLSCAASGRTFGSYVMGWYRQAPGKERELVAAITTSGGRTYYADSVKGRFTISRDNAKNTVYLQMNSLKPEDTAVYYCAAVQLTPTTLYRYYSWGQGTQVTVSS”, the “polyreactivity (PSR sort gate)” value is listed as “high polyreactivity”.

On to “QVQLVESGGGLVQAGGSLRLSCAASGRTFGTNAMGWYRQAPGKERELVASIDLSADSTYYADSVKGRFTISRDNAKNTVYLQMNSLKPEDTAVYYCNKDGYPWPPNLDYWGQGTQVTVSS”, for which the “polyreactivity (PSR sort gate)” value is on record as “low polyreactivity”.

On to “QVQLVESGGGLVQAGGSLRLSCAASGRTFGTYAMGWSRQAPGKERELVASITWSGTSTYYADSVKGRFTISRDNAKNTVYLQMNSLKPEDTAVYYCAAGWGYYRYYYWGQGTQVTVSS”, for which the “polyreactivity (PSR sort gate)” value is “high polyreactivity”.

Regarding “QVQLVESGGGLVQAGGSLRLSCAASGRTFGVNAMGWYRQAPGKERELVAAINRGGSTYYADSVKGRFTISRDNAKNTVYLQMNSLKPEDTAVYYCAAYVSAVHRNSGYWGQGTQVTVSS”, the “polyreactivity (PSR sort gate)” value was “low polyreactivity”.

Regarding “QVQLVESGGGLVQAGGSLRLSCAASGRTFGVNAMGWYRQAPGKERELVAAINWSADRTYYADSVKGRFTISRDNAKNTVYLQMNSLKPEDTAVYYCAVTQRWYWSYYGSDPSQYGYWGQGTQVTVSS”, the “polyreactivity (PSR sort gate)” value is “low polyreactivity”.

In the case of “QVQLVESGGGLVQAGGSLRLSCAASGRTFGVYAMGWYRQAPGKERELVAAISRRAGNTYYADSVKGRFTISRDNAKNTVYLQMNSLKPEDTAVYYCAADFSRQYGYWGQGTQVTVSS”, the “polyreactivity (PSR sort gate)” value is listed as “high polyreactivity”.

Consider “QVQLVESGGGLVQAGGSLRLSCAASGRTFGVYAMGWYRQAPGKERELVADITSGGGTYYADSVKGRFTILRDNAKNTVYLQMNSLKPEDTAVYYCAARKWYYAYDYWGQGTQVTVSS”, for which the “polyreactivity (PSR sort gate)” value was “high polyreactivity”.

Consider “QVQLVESGGGLVQAGGSLRLSCAASGRTFGWNVMGWYRQAPGKERELVAAISGSGGSTYYADSVKGRFTISRDNAKNTVYLQMNSLKPEDTAVYYCAALYGPGREYDYWGQGTQVTVSS”, for which the “polyreactivity (PSR sort gate)” value is on record as “low polyreactivity”.

For “QVQLVESGGGLVQAGGSLRLSCAASGRTFGWTVMGWYRPAPGKDRELVAAISGSGGSTYYADSVKGRFTISRDNAKNTVYLQMNSLKPEDTAVYYCAALYGPAREYDYWGQGTQVTVSS”, the “polyreactivity (PSR sort gate)” value is recorded as “low polyreactivity”.

For “QVQLVESGGGLVQAGGSLRLSCAASGRTFGWYAMGWYRQAPGKEREFVASINTIGGSTYYADSVKGRFTISRDNAKNTVYLQMNSLKPEDTAVYYCAAVGYVIPYDSVGYTTTDYYWGQGTQVTVSS”, the “polyreactivity (PSR sort gate)” value is “low polyreactivity”.

With “QVQLVESGGGLVQAGGSLRLSCAASGRTFGWYAMGWYRQAPGKERELVAAITYPTGSTYYADSVKGRFTISRDNAKNTVYLQMNSLKPEDTAVYYCAAQGYISAGYKYDYWGQGTQVTVSS”, the “polyreactivity (PSR sort gate)” value was “low polyreactivity”.

In the case of “QVQLVESGGGLVQAGGSLRLSCAASGRTFGWYAMGWYRQAPGKERELVASITQRGGRTYYADSVKGRFTISRDNAKNTVYLQMNSLKPEDTAVYYCAAKTSPGMYYWGQGTQVTVSS”, the “polyreactivity (PSR sort gate)” value is “high polyreactivity”.

On to “QVQLVESGGGLVQAGGSLRLSCAASGRTFGWYTMGRYRQAPGKEREMVAGISSSGGSTYYADSVKGRFTISRDNAKNTVYLQMNSMKPEDTAVYYFARETYPHGLYYRPYDYWGQGTQVTVSS”, for which the “polyreactivity (PSR sort gate)” value is “low polyreactivity”.

Consider “QVQLVESGGGLVQAGGSLRLSCAASGRTFGYNAMGWYRQAPGKEREFVAAISGSGGRTYYADSVKGRFTISRDNAKNTVYLQMNSQKPEDTAVYYCAAGFGDGPGNGYYTRYSWDDDYWGQGTQVTVSS”, for which the “polyreactivity (PSR sort gate)” value is listed as “low polyreactivity”.

Consider “QVQLVESGGGLVQAGGSLRLSCAASGRTFGYNAMGWYRQAPGKERELVAAITSGGGTKYADSVKGRFTISRDNAKNTVYLQMNSLKPEDTAVYYCAATYLYEWSRFVYDGLYYWGQGTQVTVSS”, for which the “polyreactivity (PSR sort gate)” value was “low polyreactivity”.
